Data from the supplement of paper PMC10065799, “High-throughput profiling of sequence recognition by tyrosine kinases and SH2 domains using bacterial peptide display” (eLife, 2023).

How the values were obtained:
AncSZ = assay: phosphorylation enrichment, bacterial display (enrichment ratio); higher = better substrate or ligand; peptides without Tyr show the background
EPHB1 = EPHB1 (UniProt P54762); assay: as above
EPHB2 = EPHB2 (UniProt P29323); assay: as above
FGFR1 = FGFR1 (UniProt P11362); assay: as above
FGFR3 = FGFR3 (UniProt P22607); assay: as above
Fer (mouse) = assay: as above
Fes = Fes (UniProt P07332); assay: as above
Fyn = Fyn (UniProt P06241); assay: as above
Hck = Hck (UniProt P08631); assay: as above
Jak2 = Jak2 (UniProt O60674); assay: as above
MERTK = MERTK (UniProt Q12866); assay: as above
c-Abl (mouse) = assay: as above
c-Src = assay: as above
Grb2 SH2 = Grb2 SH2 (UniProt P62993); assay: SH2 binding enrichment of the phosphorylated peptide, bacterial display (enrichment ratio); higher = better substrate or ligand; peptides without Tyr show the background
SHP2-C SH2 = assay: as above
c-Src SH2 = assay: as above
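Throughout, for SH2 binding enrichment of the phosphorylated peptide, bacterial display: peptide library displayed on the E. coli surface as eCPX fusions, selected cells deep-sequenced, score is each peptide's frequency after selection divided by its frequency in the input.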
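Throughout, for phosphorylation enrichment, bacterial display: 11-residue human phosphosite peptides and single-mutation variants displayed on the E. coli surface, counted by deep sequencing, each peptide's frequency after selection divided by its frequency in the unselected input library; frequency after pTyr selection over input frequency; kinase dosed for 20-30% of maximal phosphorylation in three min.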

Sequence of Hck (P08631 whole entry, looked up): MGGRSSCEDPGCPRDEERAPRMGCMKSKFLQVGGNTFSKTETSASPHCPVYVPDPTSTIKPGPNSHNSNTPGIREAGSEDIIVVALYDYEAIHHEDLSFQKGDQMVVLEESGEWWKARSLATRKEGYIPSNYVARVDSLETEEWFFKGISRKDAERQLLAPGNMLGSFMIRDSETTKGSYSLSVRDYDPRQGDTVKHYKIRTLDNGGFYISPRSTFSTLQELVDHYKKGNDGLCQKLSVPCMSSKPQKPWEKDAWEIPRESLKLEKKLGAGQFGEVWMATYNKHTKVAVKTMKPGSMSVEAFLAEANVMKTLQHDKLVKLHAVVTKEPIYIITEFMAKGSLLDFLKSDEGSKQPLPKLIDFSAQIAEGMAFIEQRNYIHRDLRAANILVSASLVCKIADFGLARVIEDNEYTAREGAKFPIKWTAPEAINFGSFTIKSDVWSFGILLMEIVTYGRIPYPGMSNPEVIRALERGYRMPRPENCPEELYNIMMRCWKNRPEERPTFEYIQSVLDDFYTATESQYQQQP
Sequence of Grb2 SH2 (P62993 whole entry, looked up): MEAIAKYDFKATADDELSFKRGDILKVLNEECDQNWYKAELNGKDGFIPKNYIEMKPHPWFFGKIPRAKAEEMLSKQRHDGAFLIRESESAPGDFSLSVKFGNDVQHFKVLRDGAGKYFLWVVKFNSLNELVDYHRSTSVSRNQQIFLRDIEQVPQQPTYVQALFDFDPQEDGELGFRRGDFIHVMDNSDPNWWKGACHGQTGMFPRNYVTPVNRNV
Sequence of Fyn (P06241 whole entry, looked up): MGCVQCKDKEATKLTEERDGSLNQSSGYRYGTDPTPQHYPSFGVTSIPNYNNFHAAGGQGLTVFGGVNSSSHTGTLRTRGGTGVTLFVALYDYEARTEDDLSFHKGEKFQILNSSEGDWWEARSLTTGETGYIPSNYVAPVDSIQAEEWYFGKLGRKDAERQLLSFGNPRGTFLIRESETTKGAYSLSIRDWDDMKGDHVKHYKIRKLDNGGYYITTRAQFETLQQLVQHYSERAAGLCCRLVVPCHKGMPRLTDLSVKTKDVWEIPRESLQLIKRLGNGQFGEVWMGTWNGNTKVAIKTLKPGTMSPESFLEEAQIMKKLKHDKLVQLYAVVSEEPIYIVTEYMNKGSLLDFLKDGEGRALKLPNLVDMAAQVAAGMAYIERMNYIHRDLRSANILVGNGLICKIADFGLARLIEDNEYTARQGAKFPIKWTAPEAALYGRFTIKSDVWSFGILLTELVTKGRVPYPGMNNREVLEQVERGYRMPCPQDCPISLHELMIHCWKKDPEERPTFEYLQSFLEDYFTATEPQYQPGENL
Sequence of EPHB1 (P54762 whole entry, looked up): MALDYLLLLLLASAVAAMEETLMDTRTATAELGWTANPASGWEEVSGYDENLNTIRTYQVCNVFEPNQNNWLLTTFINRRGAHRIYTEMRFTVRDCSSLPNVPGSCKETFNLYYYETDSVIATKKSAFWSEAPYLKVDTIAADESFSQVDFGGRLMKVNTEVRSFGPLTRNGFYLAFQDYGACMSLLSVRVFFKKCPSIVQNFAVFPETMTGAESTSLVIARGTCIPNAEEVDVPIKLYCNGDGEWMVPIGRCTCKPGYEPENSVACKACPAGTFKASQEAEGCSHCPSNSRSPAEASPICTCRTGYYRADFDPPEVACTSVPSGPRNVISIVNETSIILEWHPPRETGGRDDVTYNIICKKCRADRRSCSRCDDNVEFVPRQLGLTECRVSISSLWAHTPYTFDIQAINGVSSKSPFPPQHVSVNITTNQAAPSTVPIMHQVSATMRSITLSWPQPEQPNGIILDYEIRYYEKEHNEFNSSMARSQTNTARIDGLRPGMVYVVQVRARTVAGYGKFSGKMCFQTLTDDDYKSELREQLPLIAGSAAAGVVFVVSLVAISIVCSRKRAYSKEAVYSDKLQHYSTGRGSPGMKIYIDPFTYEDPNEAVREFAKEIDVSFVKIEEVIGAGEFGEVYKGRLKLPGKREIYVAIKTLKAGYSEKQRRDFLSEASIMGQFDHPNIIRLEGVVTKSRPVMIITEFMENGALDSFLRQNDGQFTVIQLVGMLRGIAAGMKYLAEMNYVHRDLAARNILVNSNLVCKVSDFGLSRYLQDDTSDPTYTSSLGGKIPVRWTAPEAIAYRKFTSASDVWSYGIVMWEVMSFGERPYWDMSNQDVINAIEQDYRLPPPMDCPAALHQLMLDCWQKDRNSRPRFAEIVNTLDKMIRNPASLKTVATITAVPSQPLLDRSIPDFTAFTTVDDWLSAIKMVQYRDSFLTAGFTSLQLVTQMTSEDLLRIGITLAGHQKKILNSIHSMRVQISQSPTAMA
Sequence of EPHB2 (P29323 whole entry, looked up): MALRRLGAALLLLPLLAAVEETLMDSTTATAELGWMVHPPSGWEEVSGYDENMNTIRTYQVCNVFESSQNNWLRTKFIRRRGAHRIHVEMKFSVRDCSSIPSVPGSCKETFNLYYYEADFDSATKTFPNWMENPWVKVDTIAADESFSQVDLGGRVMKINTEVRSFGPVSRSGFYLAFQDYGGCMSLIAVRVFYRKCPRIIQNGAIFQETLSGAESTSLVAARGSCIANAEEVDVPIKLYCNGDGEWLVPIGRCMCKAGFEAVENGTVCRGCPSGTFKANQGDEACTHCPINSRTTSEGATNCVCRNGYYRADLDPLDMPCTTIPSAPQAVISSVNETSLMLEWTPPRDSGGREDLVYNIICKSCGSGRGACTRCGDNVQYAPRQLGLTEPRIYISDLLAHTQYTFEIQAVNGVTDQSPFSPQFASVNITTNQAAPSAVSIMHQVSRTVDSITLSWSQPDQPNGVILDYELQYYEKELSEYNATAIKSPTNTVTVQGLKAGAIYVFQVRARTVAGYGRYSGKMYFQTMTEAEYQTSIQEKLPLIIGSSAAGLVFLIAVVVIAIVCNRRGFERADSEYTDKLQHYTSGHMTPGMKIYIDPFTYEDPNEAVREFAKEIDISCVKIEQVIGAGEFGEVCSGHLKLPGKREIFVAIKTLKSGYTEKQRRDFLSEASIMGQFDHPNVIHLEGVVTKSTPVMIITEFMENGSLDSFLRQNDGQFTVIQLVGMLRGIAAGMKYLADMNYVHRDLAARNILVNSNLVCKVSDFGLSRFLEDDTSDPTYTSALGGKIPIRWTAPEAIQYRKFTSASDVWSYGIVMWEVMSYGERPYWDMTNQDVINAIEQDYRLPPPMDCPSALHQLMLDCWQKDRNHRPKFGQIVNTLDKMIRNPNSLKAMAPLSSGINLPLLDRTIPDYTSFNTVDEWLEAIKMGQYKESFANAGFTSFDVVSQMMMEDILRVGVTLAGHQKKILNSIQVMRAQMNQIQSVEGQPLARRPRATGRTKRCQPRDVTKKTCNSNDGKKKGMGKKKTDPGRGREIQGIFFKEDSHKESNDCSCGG
Sequence of FGFR3 (P22607 whole entry, looked up): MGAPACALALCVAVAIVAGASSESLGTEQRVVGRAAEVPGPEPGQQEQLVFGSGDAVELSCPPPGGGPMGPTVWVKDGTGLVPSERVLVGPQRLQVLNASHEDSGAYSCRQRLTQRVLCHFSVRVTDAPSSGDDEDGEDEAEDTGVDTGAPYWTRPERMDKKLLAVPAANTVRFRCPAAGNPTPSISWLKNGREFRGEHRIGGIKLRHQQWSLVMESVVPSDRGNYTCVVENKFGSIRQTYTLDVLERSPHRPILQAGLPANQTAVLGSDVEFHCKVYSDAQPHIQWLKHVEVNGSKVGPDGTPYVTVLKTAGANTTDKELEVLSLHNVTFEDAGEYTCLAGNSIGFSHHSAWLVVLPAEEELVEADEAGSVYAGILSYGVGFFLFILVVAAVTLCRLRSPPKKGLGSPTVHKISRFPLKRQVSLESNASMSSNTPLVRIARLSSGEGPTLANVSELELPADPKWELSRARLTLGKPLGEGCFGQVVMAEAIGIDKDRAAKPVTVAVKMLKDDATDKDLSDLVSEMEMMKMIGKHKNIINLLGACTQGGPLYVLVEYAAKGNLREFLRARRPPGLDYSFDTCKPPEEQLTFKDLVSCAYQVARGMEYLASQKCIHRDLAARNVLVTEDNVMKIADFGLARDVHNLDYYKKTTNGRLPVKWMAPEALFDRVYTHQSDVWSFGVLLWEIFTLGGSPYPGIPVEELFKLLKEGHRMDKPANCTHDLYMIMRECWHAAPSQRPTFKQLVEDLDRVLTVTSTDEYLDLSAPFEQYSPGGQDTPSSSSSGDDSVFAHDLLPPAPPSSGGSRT
Sequence of FGFR1 (P11362 whole entry, looked up): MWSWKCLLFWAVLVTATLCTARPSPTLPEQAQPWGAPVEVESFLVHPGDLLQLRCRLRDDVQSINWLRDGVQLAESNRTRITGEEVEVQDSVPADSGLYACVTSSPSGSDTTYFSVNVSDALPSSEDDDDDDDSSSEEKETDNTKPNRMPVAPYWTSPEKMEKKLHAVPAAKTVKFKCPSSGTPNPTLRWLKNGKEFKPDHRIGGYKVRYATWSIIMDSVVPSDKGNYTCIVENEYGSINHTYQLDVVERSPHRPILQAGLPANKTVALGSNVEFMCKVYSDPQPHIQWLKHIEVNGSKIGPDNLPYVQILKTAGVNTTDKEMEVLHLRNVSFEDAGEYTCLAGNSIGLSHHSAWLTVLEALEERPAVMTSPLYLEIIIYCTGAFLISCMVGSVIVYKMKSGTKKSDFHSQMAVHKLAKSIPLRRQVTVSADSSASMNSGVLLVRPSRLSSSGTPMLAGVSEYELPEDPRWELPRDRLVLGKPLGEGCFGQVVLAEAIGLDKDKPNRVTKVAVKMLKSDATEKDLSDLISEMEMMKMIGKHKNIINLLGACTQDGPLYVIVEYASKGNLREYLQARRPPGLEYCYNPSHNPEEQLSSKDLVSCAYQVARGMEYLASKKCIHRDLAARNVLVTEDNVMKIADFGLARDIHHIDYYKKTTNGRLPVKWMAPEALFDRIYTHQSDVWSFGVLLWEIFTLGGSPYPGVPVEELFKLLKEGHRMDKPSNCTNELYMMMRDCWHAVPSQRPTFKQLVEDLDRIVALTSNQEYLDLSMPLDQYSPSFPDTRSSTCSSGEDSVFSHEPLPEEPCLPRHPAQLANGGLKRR

Sequence | phosphorylation enrichment (AncSZ) | phosphorylation enrichment (EPHB1) | phosphorylation enrichment (EPHB2) | phosphorylation enrichment (FGFR1) | phosphorylation enrichment (FGFR3) | phosphorylation enrichment (Fer (mouse)) | phosphorylation enrichment (Fes) | phosphorylation enrichment (Fyn) | phosphorylation enrichment (Hck) | phosphorylation enrichment (Jak2) | phosphorylation enrichment (MERTK) | phosphorylation enrichment (c-Abl (mouse)) | phosphorylation enrichment (c-Src) | SH2 binding enrichment (Grb2 SH2) | SH2 binding enrichment (SHP2-C SH2) | SH2 binding enrichment (c-Src SH2)
RIFDYYSARKA [STOX1_Y858] | 0.959 | 0.499 | 0.656 | 0.614 | 0.612 | 0.7 | 1.28 | 0.713 | 0.792 | 1.16 | 0.582 | 1.08 | 1.1 | 1.48 | 0.648 | 0.469
DTLMEYLENPK [CYCS_Y68] | 1.51 | 0.672 | 0.682 | 0.511 | 0.905 | 0.677 | 1.49 | 0.484 | 0.69 | 1.28 | 0.529 | 0.95 | 0.562 | 0.915 | 0.872 | 0.502
RSSNTYTLTDV [ALCAM_Y298] | 0.766 | 0.544 | 0.561 | 0.519 | 0.705 | 1.04 | 0.921 | 1.6 | 0.951 | 0.805 | 0.766 | 0.669 | 1.58 | 0.82 | 0.689 | 1.19
TLKDVCDDGKY [RPS6KA3_Y483_Y483C] | 0.93 | 0.569 | 0.624 | 0.53 | 0.594 | 0.456 | 1.2 | 0.434 | 0.622 | 0.841 | 0.437 | 0.664 | 0.507 | 1.05 | 0.851 | 0.594
DEFLEYRRIVG [FAM221A_Y20_YF] | 0.83 | 0.469 | 0.439 | 0.466 | 0.551 | 0.526 | 1.17 | 0.505 | 0.537 | 0.964 | 0.493 | 0.797 | 0.507 | 0.945 | 1 | 0.53
PPPPAYDDVAQ [TNK2_Y635] | 1.16 | 0.579 | 0.669 | 0.467 | 0.591 | 0.547 | 0.993 | 0.45 | 0.439 | 1.03 | 0.676 | 0.806 | 0.622 | 0.757 | 0.706 | 4.13
DPFHVYIKNRV [KCNE3_Y95_YF] | 1.27 | 0.604 | 0.464 | 0.455 | 0.764 | 0.486 | 1.19 | 0.415 | 0.437 | 1.08 | 0.369 | 0.692 | 0.31 | 1.13 | 0.936 | 0.604
PSPMPYACCQM [FOXL2_Y215_S217C] | 0.703 | 0.663 | 0.437 | 0.494 | 0.812 | 0.831 | 1.3 | 0.71 | 0.427 | 0.516 | 0.615 | 0.49 | 1.02 | 0.888 | 0.426 | 1.32
DTVRIYDDDFF [UBA1_Y560_E557V] | 1.28 | 0.777 | 0.626 | 0.602 | 0.642 | 0.619 | 1.24 | 0.555 | 0.538 | 1.27 | 0.592 | 0.726 | 0.522 | 0.93 | 0.578 | 0.909
EWRSPYGLTPR [GRIN3B_Y601] | 0.569 | 0.413 | 0.473 | 0.403 | 0.442 | 0.434 | 0.636 | 0.657 | 0.474 | 0.459 | 0.484 | 0.486 | 1.28 | 1.3 | 0.766 | 0.645
NNTFLYQLVFD [EXO1_Y284] | 1.35 | 5.34 | 4.11 | 1.65 | 1.72 | 4.67 | 1.21 | 1.7 | 2.58 | 1.14 | 5.99 | 0.684 | 2.28 | 1.44 | 1.15 | 1.14
PAQAAYQKVVA [HBB_Y131_V127A] | 0.647 | 0.562 | 0.67 | 0.544 | 0.62 | 0.477 | 0.771 | 0.879 | 0.542 | 0.59 | 0.349 | 0.589 | 0.375 | 0.9 | 0.884 | 0.87
DGFTDYAEFAK [MCFD2_Y138_I136T_YF] | 1.24 | 0.88 | 0.741 | 0.654 | 0.752 | 0.477 | 1.31 | 0.974 | 0.954 | 1.34 | 0.542 | 0.811 | 1.11 | 0.823 | 0.864 | 0.547
EYKDAYKFAAD [BRDT_Y335] | 0.984 | 0.59 | 0.553 | 0.511 | 0.632 | 0.559 | 1.14 | 0.499 | 0.542 | 0.722 | 0.475 | 0.666 | 0.495 | 0.861 | 0.572 | 0.864
EALDFCGEVRT [PTEN_Y155_Y155C] | 1.31 | 0.882 | 0.691 | 0.803 | 1.09 | 0.674 | 1.48 | 0.583 | 0.642 | 1.41 | 0.482 | 0.984 | 0.545 | 1.07 | 0.645 | 0.534
KKIMGYSIRTI [IDS_Y490_I485K] | 0.625 | 0.41 | 0.405 | 0.392 | 0.332 | 0.394 | 0.571 | 0.304 | 0.387 | 0.537 | 0.366 | 0.538 | 0.364 | 1.67 | 1.2 | 1.32
ERSMSYSDESR [SMG1_Y143] | 0.887 | 0.541 | 0.541 | 0.537 | 0.63 | 0.485 | 0.912 | 0.463 | 0.456 | 0.876 | 0.489 | 0.905 | 0.538 | 0.881 | 0.714 | 0.715
